From article PMC7948647, “Region 4 of the RNA polymerase σ subunit counteracts pausing during initial transcription” come the findings set out here.

Data set [1] addresses RNAP core from E. coli (EcoRNAP core) (E. coli) (UniProt P0A8V2).
The target is the same in data set [2]. The source holds these as a separate data set.
Data set [3] concerns the target RNA polymerase core (EcoRNAP) (Escherichia coli, UniProt P0A7Z4;P0A8V2;P0A8T7;P0A800 1-329;1-1342;1-1407;2-91). The data set is described as follows: pull-down (Ni-agarose RNA retention); 1 M NaCl wash; 40 mM HEPES pH 7.9, 5 mM MgCl2, 50 mM NaCl, 5% glycerol; binding to Ni-NTA at 18 C, washes with 250 mM NaCl (1 M for core controls), labeling at 22 C. The following applies: protein: recombinant; tags: C-terminal 6xHis on rpoC; chain copies: 2;1;1;1; 9-bp downstream duplex, 10-nt 3' template overhang; 13-nt RNA with unpaired 5' end.

Data set [4] addresses full-length σ^70 subunit of E. coli RNA polymerase (E. coli) (UniProt P00579).

RNAP core from E. coli (EcoRNAP core) (E. coli), sequence (P0A8V2 whole entry, looked up): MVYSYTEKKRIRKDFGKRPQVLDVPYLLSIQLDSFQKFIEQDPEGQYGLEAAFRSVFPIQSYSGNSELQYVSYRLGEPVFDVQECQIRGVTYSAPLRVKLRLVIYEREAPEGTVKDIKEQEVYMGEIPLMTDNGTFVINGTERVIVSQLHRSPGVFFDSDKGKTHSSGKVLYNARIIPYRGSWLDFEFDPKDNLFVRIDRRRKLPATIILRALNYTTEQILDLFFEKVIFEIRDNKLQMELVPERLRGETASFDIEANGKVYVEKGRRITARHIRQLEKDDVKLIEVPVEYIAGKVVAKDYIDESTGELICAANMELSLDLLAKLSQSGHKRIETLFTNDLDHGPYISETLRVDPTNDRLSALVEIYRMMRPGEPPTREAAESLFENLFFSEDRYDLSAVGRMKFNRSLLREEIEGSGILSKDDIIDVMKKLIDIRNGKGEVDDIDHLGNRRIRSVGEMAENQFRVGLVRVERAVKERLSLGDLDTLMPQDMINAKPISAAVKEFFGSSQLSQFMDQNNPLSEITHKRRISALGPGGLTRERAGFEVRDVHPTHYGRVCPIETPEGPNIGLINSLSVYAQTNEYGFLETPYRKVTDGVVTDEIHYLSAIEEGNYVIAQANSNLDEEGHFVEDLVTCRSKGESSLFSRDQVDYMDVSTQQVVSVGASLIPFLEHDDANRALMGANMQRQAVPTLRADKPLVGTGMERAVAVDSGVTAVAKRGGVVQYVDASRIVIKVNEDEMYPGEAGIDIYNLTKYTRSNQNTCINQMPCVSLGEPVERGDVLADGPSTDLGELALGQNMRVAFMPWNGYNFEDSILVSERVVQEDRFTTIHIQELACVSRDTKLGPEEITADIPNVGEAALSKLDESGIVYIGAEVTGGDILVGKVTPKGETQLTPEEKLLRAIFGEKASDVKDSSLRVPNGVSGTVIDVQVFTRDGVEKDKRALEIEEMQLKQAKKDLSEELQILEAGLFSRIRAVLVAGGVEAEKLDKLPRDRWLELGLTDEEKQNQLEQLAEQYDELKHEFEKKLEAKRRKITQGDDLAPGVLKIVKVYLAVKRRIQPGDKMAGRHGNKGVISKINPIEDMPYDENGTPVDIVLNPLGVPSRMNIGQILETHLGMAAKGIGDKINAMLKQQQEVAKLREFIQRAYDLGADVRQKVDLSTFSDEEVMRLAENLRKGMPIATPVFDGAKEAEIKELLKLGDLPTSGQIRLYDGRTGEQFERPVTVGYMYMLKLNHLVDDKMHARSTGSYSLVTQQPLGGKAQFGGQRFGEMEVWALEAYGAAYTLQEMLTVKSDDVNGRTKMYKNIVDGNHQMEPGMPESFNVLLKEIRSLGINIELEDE
full-length σ^70 subunit of E. coli RNA polymerase (E. coli), sequence (P00579 whole entry): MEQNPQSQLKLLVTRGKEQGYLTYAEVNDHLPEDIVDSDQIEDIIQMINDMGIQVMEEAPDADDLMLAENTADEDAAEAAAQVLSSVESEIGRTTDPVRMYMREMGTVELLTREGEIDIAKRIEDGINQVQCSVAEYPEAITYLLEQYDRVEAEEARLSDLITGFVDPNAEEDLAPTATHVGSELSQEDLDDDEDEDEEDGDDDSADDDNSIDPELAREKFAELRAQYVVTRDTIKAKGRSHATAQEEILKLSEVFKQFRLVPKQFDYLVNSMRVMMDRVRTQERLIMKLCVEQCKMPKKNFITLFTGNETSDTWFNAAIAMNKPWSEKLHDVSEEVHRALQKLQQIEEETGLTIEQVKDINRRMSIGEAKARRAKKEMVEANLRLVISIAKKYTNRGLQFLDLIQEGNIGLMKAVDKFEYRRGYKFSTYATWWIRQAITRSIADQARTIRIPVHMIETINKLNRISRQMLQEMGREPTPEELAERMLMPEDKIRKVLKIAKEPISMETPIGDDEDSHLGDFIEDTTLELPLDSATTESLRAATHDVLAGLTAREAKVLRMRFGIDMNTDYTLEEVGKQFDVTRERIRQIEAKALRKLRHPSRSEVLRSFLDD

For “σΔ4 fragment of σ^70 (residues 1–529) (from UniProt P00579 1-529) (domain or fragment)”, the translocation efficiency (fraction of 5-nt RNA) in extension of the 2-nt primer GpC on the LDT scaffold in data set [1] is < 50%.
Turning to “σ_(Δ4.2) fragment of σ^70 (residues 1–553) (from UniProt P00579 1-553) (domain or fragment)”, the translocation efficiency (fraction of 5-nt RNA) in extension of the 2-nt primer GpC on the LDT scaffold in data set [1] is < 50%.
In the case of “full-length σ^70 subunit of E. coli RNA polymerase (from UniProt P00579 1-613) (natural protein)”, the translocation efficiency (fraction of 5-nt RNA) in extension of the 2-nt primer GpC on the LDT scaffold; core alone about 40% in data set [2] is 95%.
“σ_(Δ3–4) fragment of σ^70 (residues 1–448) (from UniProt P00579 1-448) (domain or fragment)”: the translocation efficiency (fraction of 5-nt RNA) in extension of the 2-nt primer GpC on the LDT scaffold in data set [1] was < 50%.

B1: SDT scaffold + pRNA13 (mixed)
RNA: AAUUGUGAGCGGA
DNA 1: TGCAATTGTCATCCGCTCA
DNA 2: ACAATTGCA
With B1, the binding result in data set [3] was “binds”.

B2: T4 phage coactivator protein AsiA (natural protein)
chain: MNKNIDTVREIITVASILIKFSREDIVENRANFIAFLNEIGVTHEGRKLNQNSFRKIVSELTQEDKKTLIDEFNEGFEGVYRYLEMYTNK
Take B2: in data set [4], the inhibition by 1 μM AsiA of abortive transcription by σ^70-EcoRNAP at the lacUV5 promoter (AsiA used to disrupt the pair σ4.2 of σ^70 and β-FTH of the core) came out at 85%; the inhibition by 1 μM AsiA of de novo 3-nt RNA synthesis by σ^70-EcoRNAP on the SDT2 scaffold (AsiA used to disrupt the pair σ4.2 of σ^70 and β-FTH of the core) is 50%.
